# How the values were obtained:
# Grb2 SH2 = Grb2 SH2 (UniProt P62993); test: SH2 binding enrichment of the phosphorylated peptide, bacterial display (enrichment ratio); higher = better substrate or ligand; peptides without Tyr show the background
# c-Src SH2 = test: as above
# SHP2-C SH2 = test: as above
# MERTK = MERTK (UniProt Q12866); test: phosphorylation enrichment, bacterial display (enrichment ratio); higher = better substrate or ligand; peptides without Tyr show the background
# Fer (mouse) = test: as above
# Fes = Fes (UniProt P07332); test: as above
# Fes, sequence (P07332 whole entry, looked up): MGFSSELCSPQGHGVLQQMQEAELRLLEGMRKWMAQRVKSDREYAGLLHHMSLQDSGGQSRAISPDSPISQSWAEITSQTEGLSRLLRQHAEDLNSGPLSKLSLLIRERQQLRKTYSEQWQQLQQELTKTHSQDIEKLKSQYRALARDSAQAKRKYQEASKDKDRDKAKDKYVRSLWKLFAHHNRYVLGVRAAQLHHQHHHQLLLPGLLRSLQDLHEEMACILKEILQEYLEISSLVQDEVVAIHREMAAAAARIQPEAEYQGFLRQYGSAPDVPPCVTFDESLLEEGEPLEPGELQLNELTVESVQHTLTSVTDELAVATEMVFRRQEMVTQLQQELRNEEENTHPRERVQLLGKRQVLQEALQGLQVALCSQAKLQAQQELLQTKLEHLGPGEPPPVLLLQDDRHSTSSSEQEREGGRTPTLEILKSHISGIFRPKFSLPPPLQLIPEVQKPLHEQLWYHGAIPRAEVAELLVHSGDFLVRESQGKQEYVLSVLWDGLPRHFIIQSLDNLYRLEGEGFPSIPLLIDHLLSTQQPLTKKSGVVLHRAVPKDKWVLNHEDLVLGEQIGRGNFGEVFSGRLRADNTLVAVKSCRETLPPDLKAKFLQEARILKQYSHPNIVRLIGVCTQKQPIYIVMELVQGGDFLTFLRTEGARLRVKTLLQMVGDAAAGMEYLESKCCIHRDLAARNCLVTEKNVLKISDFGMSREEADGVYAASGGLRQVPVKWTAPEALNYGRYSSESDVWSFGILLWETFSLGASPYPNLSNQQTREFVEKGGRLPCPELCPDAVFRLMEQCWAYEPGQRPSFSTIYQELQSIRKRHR
# Jak2 = Jak2 (UniProt O60674); test: as above
# Jak2, sequence (O60674 whole entry, looked up): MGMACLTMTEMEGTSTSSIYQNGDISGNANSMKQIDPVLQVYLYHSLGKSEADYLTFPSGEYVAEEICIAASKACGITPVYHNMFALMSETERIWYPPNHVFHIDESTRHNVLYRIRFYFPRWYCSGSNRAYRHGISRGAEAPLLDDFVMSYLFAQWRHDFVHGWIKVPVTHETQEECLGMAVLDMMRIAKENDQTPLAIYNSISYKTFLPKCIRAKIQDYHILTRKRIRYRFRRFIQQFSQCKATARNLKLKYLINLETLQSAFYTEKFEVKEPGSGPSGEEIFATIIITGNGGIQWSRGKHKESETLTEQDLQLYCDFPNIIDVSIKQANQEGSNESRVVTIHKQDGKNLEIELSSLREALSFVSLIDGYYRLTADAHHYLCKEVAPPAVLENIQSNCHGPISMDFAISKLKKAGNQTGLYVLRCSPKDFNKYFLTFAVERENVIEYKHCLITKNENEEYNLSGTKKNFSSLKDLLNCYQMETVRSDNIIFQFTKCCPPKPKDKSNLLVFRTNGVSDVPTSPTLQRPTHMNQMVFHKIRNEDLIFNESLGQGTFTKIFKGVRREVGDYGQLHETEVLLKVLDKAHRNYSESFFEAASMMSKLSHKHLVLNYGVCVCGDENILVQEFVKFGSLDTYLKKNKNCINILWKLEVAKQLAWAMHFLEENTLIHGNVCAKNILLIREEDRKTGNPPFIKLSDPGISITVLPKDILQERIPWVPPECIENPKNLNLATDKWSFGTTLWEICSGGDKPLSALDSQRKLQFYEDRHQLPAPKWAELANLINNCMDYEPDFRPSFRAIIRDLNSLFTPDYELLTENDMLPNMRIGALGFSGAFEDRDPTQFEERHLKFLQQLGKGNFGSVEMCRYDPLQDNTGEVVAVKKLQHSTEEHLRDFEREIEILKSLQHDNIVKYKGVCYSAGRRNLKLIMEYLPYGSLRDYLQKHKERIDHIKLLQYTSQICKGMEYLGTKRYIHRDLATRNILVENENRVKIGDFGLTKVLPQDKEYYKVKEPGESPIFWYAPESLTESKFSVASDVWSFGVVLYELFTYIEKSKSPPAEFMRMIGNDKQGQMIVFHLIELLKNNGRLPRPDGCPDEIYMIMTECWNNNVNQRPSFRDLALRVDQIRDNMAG
# EPHB1 = EPHB1 (UniProt P54762); test: as above
# EPHB1, sequence (P54762 whole entry, looked up): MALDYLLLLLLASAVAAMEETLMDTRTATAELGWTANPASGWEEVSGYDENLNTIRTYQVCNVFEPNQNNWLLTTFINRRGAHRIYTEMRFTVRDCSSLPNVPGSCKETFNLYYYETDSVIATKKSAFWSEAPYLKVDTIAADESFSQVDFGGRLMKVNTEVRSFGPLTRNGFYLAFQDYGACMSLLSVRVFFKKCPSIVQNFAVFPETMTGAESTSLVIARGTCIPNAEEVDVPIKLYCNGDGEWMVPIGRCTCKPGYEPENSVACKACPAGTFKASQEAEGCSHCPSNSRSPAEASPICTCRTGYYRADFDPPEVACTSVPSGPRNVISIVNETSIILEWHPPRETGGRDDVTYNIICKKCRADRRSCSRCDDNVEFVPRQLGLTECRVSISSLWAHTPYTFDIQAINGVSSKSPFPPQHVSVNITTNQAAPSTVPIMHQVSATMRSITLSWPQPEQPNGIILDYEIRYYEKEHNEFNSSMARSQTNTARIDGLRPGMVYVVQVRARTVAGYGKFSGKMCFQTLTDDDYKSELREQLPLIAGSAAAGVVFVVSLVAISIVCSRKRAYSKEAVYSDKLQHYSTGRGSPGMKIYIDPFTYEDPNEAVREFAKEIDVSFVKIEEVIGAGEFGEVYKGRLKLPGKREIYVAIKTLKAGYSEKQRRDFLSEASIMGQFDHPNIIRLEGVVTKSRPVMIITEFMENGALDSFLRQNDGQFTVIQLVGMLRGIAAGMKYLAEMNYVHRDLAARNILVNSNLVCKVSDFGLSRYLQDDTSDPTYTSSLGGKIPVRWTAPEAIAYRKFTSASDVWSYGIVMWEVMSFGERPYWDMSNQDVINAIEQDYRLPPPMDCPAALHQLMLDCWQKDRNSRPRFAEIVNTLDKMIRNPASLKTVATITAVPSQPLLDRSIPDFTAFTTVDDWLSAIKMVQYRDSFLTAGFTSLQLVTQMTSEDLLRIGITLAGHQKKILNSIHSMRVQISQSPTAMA
# EPHB2 = EPHB2 (UniProt P29323); test: as above
# Fyn = Fyn (UniProt P06241); test: as above
# Fyn, sequence (P06241 whole entry, looked up): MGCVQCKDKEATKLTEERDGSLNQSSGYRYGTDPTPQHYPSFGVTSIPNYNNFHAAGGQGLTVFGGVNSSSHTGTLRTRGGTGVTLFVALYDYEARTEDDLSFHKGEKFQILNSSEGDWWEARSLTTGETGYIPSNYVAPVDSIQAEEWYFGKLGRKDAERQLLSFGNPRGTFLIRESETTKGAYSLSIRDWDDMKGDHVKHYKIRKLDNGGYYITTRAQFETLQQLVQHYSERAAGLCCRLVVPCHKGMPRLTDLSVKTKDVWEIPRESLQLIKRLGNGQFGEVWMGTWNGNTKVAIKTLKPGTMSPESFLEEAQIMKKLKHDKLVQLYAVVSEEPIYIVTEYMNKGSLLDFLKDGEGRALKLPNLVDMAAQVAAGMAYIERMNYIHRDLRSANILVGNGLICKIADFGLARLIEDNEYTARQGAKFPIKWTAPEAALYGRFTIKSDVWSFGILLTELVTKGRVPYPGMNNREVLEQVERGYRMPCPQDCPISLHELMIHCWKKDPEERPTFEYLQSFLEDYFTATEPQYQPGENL
# FGFR3 = FGFR3 (UniProt P22607); test: as above
# c-Src = test: as above
# c-Abl (mouse) = test: as above
# FGFR1 = FGFR1 (UniProt P11362); test: as above
# FGFR1, sequence (P11362 whole entry, looked up): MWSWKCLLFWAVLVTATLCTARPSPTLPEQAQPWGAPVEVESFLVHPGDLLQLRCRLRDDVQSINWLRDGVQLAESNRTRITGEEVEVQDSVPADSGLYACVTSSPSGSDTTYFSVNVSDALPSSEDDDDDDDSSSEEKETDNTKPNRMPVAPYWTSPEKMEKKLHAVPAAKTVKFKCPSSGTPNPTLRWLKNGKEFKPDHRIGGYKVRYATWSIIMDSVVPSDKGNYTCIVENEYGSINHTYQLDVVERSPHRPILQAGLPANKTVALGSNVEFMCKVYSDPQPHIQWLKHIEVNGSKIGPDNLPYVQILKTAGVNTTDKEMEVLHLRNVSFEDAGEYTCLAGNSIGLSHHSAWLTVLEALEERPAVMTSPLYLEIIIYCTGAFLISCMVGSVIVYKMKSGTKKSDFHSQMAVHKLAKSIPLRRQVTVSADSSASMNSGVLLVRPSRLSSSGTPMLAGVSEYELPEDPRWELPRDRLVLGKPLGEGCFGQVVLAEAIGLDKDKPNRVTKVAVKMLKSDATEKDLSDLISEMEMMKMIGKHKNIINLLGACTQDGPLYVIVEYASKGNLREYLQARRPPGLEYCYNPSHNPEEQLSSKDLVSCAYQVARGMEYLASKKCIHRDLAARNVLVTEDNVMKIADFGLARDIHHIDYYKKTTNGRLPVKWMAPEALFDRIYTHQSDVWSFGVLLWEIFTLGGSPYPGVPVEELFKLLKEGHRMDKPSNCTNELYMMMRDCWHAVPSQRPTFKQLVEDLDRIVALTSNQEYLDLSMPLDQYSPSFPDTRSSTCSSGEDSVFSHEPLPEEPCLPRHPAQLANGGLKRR
# AncSZ = test: as above
# Hck = Hck (UniProt P08631); test: as above
# Hck, sequence (P08631 whole entry, looked up, the tested form may be a part): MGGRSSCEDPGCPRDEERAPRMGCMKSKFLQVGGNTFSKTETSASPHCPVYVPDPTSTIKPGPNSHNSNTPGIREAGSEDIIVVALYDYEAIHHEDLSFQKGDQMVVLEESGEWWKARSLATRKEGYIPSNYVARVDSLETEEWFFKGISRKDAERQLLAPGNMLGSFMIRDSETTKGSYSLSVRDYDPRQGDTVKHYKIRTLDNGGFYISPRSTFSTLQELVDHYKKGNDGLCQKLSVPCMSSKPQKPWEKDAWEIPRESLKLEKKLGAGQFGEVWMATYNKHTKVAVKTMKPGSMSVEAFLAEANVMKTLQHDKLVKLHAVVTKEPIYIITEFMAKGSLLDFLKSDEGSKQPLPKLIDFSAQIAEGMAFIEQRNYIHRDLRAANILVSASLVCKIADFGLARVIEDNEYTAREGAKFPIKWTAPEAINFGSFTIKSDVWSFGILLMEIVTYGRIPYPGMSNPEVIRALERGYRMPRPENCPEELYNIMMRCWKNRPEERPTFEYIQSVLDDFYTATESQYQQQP
# 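For SH2 binding enrichment of the phosphorylated peptide, bacterial display in this document: peptide library displayed on the E. coli surface as eCPX fusions, selected cells deep-sequenced, score is each peptide's frequency after selection divided by its frequency in the input.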
# 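For phosphorylation enrichment, bacterial display in this document: 11-residue human phosphosite peptides and single-mutation variants displayed on the E. coli surface, counted by deep sequencing, each peptide's frequency after selection divided by its frequency in the unselected input library; frequency after pTyr selection over input frequency; kinase dosed for 20-30% of maximal phosphorylation in three min.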
Sequence,SH2 binding enrichment (Grb2 SH2),SH2 binding enrichment (c-Src SH2),SH2 binding enrichment (SHP2-C SH2),phosphorylation enrichment (MERTK),phosphorylation enrichment (Fer (mouse)),phosphorylation enrichment (Fes),phosphorylation enrichment (Jak2),phosphorylation enrichment (EPHB1),phosphorylation enrichment (EPHB2),phosphorylation enrichment (Fyn),phosphorylation enrichment (FGFR3),phosphorylation enrichment (c-Src),phosphorylation enrichment (c-Abl (mouse)),phosphorylation enrichment (FGFR1),phosphorylation enrichment (AncSZ),phosphorylation enrichment (Hck)
TKLKDYYIFNK [CCDC42_Y149_A144T],1.05,0.88,1.1,1.28,0.538,0.91,1.49,0.811,0.691,0.579,3.16,1.37,0.736,4.92,1.02,0.752
IGHHAYGDQFR [IDH1_Y135_R132H_YF],0.885,0.487,0.659,0.397,0.371,0.618,0.503,0.444,0.417,0.346,0.477,0.373,0.516,0.414,0.63,0.381
PGAPAYCVLME [MYO5A_Y1245_R1246C],0.628,0.883,0.549,4.03,0.876,1.44,1.25,3.07,1.5,1.12,1.64,0.964,1.27,1.58,1.64,1.38
WIPIQCPIISE [NOG_Y222_Y222C],0.871,0.513,0.885,0.373,0.54,1.41,1.12,0.818,0.591,0.551,1.04,0.433,0.836,0.54,1.31,0.563
QQLQGYVPSNF [FRK_Y99_I100V_YF],1.03,0.659,0.64,0.75,0.584,1.07,1.52,0.653,0.664,0.479,0.779,0.904,1.13,0.475,0.699,0.802
FDEFRYRSVIK [CFTR_Y517_YF],0.812,0.444,0.527,0.463,0.409,0.804,0.607,0.39,0.472,0.41,0.484,0.46,0.544,0.466,0.768,0.498
QEGPEYWDQET [HLA-A_Y83],0.819,0.588,0.354,0.66,0.546,1.79,1.94,0.809,0.533,0.739,1.16,0.825,0.907,0.816,1.82,0.73
GGGGGYNCSSG [FUS_Y232_R234C],0.928,0.574,0.613,0.342,0.415,0.666,0.614,0.402,0.432,0.41,0.626,0.355,0.534,0.378,0.563,0.411
RLLVVYSWTQR [HBB_Y36_P37S],1.57,1.31,1.21,1.05,0.565,1.57,1.37,1.04,0.593,0.864,0.91,0.872,1,0.783,1.47,0.698
YCIDHYLGKEM [G6PD_Y202_R198C],0.981,1.01,1.05,0.64,0.952,0.827,0.75,0.499,0.567,0.503,0.558,0.606,0.611,0.567,0.892,0.694
KVPELYEIHTE [BCR_Y554_K558T],0.969,0.525,0.696,0.508,0.74,0.984,0.827,0.94,0.945,0.629,0.68,0.546,0.712,0.578,1.19,0.745
FGPPQYNIQFS [ERBB2IP_Y977_YF],0.907,0.592,0.806,0.311,0.342,0.779,0.741,0.524,0.44,0.364,0.508,0.395,0.641,0.447,0.768,0.405
THQNSYQPGRK [CEFIP_Y210],0.903,0.673,0.98,0.34,0.303,0.436,0.415,0.233,0.366,0.36,0.34,0.299,0.422,0.479,0.561,0.375
IMNLLYHVVGW [GBA_Y412_T408M],1.61,1.41,1.66,7.65,2.16,0.872,2.43,4.93,2.71,4.49,5.38,5.2,2.74,6.14,0.963,6.31
HFVDEYDPTME [KRAS_Y32_I36M],0.802,0.717,0.448,0.66,1.11,1.49,1.33,0.727,0.437,0.614,0.633,0.634,1.31,0.424,1.5,0.702
TAGEPYHDIRF [BAP1_Y223],0.899,1.94,0.776,0.426,0.523,0.744,0.64,0.555,0.446,0.498,1.29,0.619,0.429,1.54,0.821,0.489
VDTRAYLTSAT [MT-CO1_Y304_F305L],0.774,0.439,0.569,0.393,0.488,0.763,0.603,0.589,0.438,0.436,0.723,0.414,0.637,0.518,0.671,0.377
EPGSLYGCGGG [ATM_Y2019_D2016G],1.24,0.589,0.695,0.634,0.818,0.803,0.707,0.548,0.527,0.851,0.567,0.918,0.584,0.52,0.77,2.19
STGRSYAGVAV [KLHL3_Y577],0.878,0.476,0.837,0.318,0.31,0.466,0.389,0.25,0.3,0.345,0.389,0.302,0.361,0.482,0.43,0.315
IQKWEYVPLGP [FAH_Y244],0.834,0.656,0.558,0.597,0.454,1.01,1.43,0.612,0.521,0.514,0.822,0.453,0.791,1.11,1.02,0.48
WRRLIYRCQVG [NR2E3_Y81_R76W],0.939,0.366,0.561,0.484,0.489,0.784,0.837,0.389,0.486,0.452,0.515,0.494,0.65,0.487,0.906,0.424

# The next lines start with results.
SH2 binding enrichment (Grb2 SH2),SH2 binding enrichment (c-Src SH2),SH2 binding enrichment (SHP2-C SH2),Sequence,phosphorylation enrichment (MERTK),phosphorylation enrichment (Fer (mouse)),phosphorylation enrichment (Fes),phosphorylation enrichment (Jak2),phosphorylation enrichment (EPHB1),phosphorylation enrichment (EPHB2),phosphorylation enrichment (Fyn),phosphorylation enrichment (FGFR3),phosphorylation enrichment (c-Src),phosphorylation enrichment (c-Abl (mouse)),phosphorylation enrichment (FGFR1),phosphorylation enrichment (AncSZ),phosphorylation enrichment (Hck)
0.692,0.675,0.836,PLDGEYFTRQI [TP53_Y327_L330R],0.54,0.291,1.01,0.637,0.441,0.435,0.547,0.651,0.841,1.2,0.387,1.09,0.686
1.2,2.03,3.14,PSQRHYVYYYS [PTEN_Y174_R173H],12.6,1.65,1.63,4.48,1.72,0.953,2.84,6.63,4.77,1.28,9.38,1.71,2.13
0.829,0.695,0.777,PHIKTYMRPSP [TDP1_Y497],0.429,0.543,0.688,0.586,0.645,0.518,0.861,0.547,0.435,0.654,0.629,0.702,0.441
0.967,0.372,0.561,RRIHSYRGRLW [VHL_Y112_H115R],0.538,0.637,0.771,0.68,0.865,0.641,0.547,0.811,0.7,0.836,0.733,0.956,0.754
0.76,0.451,0.914,IHTDAYVRAMT [RPE65_Y89_R85H],0.319,0.407,0.589,0.442,0.35,0.414,0.375,0.401,0.363,0.474,0.389,0.475,0.397
0.89,0.709,1.01,TKAEKYVNKAK [PLCG1_Y991],0.365,0.403,0.671,0.557,0.264,0.293,0.295,0.523,0.443,0.92,0.387,0.503,0.343
1.05,1.21,4.04,DFLSSYSAVKQ [OAT_Y85_N89K],0.273,0.746,1.03,0.639,0.516,0.502,0.466,0.445,0.444,0.46,0.491,1.5,0.429
0.539,0.391,0.476,VREIRYQGGNR [VWF_Y1570],0.522,0.402,0.653,0.968,0.329,0.511,0.421,0.382,0.495,0.615,0.378,0.597,0.42
0.663,0.471,0.543,SFSGEYGGGGG [ZG16_Y30_YF],0.306,0.413,0.571,0.47,0.392,0.467,0.348,0.35,0.423,0.505,0.496,0.62,0.397
0.872,0.642,0.661,ATATDYHTTSH [SLC4A1_Y46],0.438,0.328,0.482,0.387,0.31,0.348,0.294,0.434,0.334,0.416,0.408,0.473,0.397
0.802,11,2.42,CTTNHYNYMCN [TP53_Y234_I232N],0.398,0.489,0.712,0.593,0.682,0.483,0.382,0.526,0.373,0.495,0.479,0.725,0.415
1.25,0.896,1.16,PSQRHYVFFFS [PTEN_Y174_R173H_YF],0.892,0.535,2.72,1.92,0.926,0.763,0.757,1.2,0.787,1.22,0.759,2.04,0.712
